# Measured values from patent US20110081354A1 (Bristol-Myers Squibb, published 2011).
# Residue numbers refer to the chain shown, from its start.
# B1: 3A4 human monoclonal antibody (antibody, V domains shown)
# VH: QVQVVESGGGVVQPGRSLRLSCAASGFTFSSYGMHWVRQAPGKGLEWVAVIWYDGSNKYYVDSVKGRFTISRDNSKNTLYLQMNSLRAEDTAVYYCARGPGYSSSFDYWGQGTLVTVSS
# VL: DIQMTQSPSSLSASVGDRVTITCRASQGISSWLAWYQQKPEKAPKSLIYAASSLQSGVPSRFSGSGSGTDFTLTISSLQPEDFATYYCQQYNSYPLTFGGGTKVEIK
# notes: Purified human IgG kappa antibody from a hybridoma (HuMab mouse); also called mAb 3A4
# B2: 6C10 human monoclonal antibody (antibody, V domains shown)
# VH: B1 VH with V4L, A23T, Y32H, I51V, Y53F, P100S, S105G
# VL: B1 VL
# notes: Purified human IgG kappa antibody from a hybridoma (HuMab mouse); also called mAb 6C10
# Assays:
# [1] = target: T1, chimeric CTLA-4 protein comprising the extracellular and transmembrane domains of human CTLA-4 linked to the … (human; murine, UniProt P16410 36-187; P24161 52-164, limits assumed); assay: flow cytometry on cells expressing chimeric human CTLA-4/CD3zeta; PE anti-human IgG detection
# T1 construct: domain: extracellular and transmembrane domains;domain: intracellular domain; also called cell surface CTLA4; hCTLA4+ cells
# [2] = target: T2, CTLA-4-Ig fusion protein comprising the extracellular domain of human CTLA-4 fused to the Fc region of human … (human, UniProt P16410 36-161); assay: blocking assay, flow cytometry: inhibition of CTLA-4-Ig binding to mouse B7-1 expressing cells
# T2 construct: extracellular domain; also called CTLA-4 Hu Ig; soluble human CTLA-4 fusion protein; not shown: Fc region of human immunoglobulin
# T2 sequence (looked up): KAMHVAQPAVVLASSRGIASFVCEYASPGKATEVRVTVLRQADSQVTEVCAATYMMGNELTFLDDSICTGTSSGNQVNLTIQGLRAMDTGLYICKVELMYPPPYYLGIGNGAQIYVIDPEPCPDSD
Binder,EC50 [1] [nM],EC50 [2] [nM]
B1,0.661,7.41
B2,0.247,15.3
